Columns and labels:
[1] = molecular target: T1, recombinant biotinylated human CD137 protein (Fc-fusion protein, R&D Systems 838-4B) (human, UniProt Q07011 24-186, biotinylated (site not stated)); experiment: ELISA, bacterial lysate on plate-bound antigen, luminescence
T1 construct: Bought Fc fusion; The ELISA used the same antigen as the panning; also called CD137-Fc; biotinylated CD137; not shown: Fc part of the bought fusion protein
Description: (§1) Streptavidin-coated Maxisorp plates (Nunc catalog 436110) were blocked for 1 h in Starting Block T20 (Pierce) and then coated with biotinylated CD137 (using same antigen as in panning) or negative controls (an unrelated Fc-fused recombinant protein and human serum albumin) for 1 h. Plates were rinsed with TBST and diluted lysate was applied to plates for 1 h. Following additional rinses, wells were treated with HRP-conjugated anti-Centyrin antibody (PAB25) for 1 h and then assayed with POD (Roche catalog 11582950001).

[2] = molecular target: T2, human serum albumin (human, UniProt P02768 25-609); experiment: as above
T2 construct: Negative control antigen of the screening ELISA; also called HSA
Description: as §1
T2 sequence (P02768 25-609 limits assumed): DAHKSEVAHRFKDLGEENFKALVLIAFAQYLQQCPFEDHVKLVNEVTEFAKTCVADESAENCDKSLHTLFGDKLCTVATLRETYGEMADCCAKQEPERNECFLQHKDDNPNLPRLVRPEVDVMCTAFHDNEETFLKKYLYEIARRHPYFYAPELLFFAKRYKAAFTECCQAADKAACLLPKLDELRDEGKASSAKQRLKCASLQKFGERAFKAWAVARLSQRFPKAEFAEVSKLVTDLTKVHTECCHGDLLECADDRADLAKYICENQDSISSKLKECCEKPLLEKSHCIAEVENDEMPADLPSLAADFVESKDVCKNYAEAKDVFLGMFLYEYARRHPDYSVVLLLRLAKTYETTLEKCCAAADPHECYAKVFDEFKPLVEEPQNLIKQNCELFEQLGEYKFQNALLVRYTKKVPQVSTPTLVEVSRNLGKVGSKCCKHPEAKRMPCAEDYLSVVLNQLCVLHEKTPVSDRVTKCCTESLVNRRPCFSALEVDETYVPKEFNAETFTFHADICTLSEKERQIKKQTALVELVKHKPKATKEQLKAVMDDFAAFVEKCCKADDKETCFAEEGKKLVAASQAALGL

[3] = molecular target: unrelated Fc-fused recombinant protein (negative control); experiment: as above
[4] = molecular target: unrelated Fc-fused recombinant protein; experiment: ELISA, negative control Fc protein
[5] = molecular target: T3, human serum albumin (human, UniProt P02768 25-609); experiment: ELISA, negative control HSA
T3 construct: Negative control of the ELISA; also called HSA
Method in brief: (§2)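 Biotinylated CD137-Fc, an unrelated Fc-fusion protein or human serum albumin captured 1 h on streptavidin plates blocked in Starting Block T20; diluted bacterial lysate applied 1 h. Bound binders detected with HRP-conjugated anti-Centyrin antibody (PAB25) for 1 h, then POD substrate read-out.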
T3 sequence (P02768 25-609 limits assumed): as above

[6] = molecular target: extracellular domain of human CD137 on the surface of CHO-K1 cells (human, UniProt Q07011 24-186); experiment: flow cytometry on CHO-K1 cells with human CD137 ECD
Description: Cell surface binding was analyzed via flow cytometry. Cenyrins were prepared at a maximal concentration of 500 nM in the presence of 125 nM anti His-mIgG1 antibody and then serially diluted in PBS/1% FCS buffer. Samples were then applied to approx 100 000 CHO-Kl cells expressing the extracellular domain of human CD137 on their surface. Unbound Centyrin/Antibody complexes were washed away and bound FN3 domains were detected by the addition of goat anti mouse-FITC labeled antibody. Samples were then aquired by flow cytometry. Subsequently, Mean flurescence intensity was plotted against the log Centyrin concentration and EC50 values were calculated by nonlinear regression using GraphPad Prism.

[7] = molecular target: T4, recombinant biotinylated CD137 protein (Fc-fusion protein, R&D Systems 838-4B) (human, UniProt Q07011 24-186, biotinylated, sites not stated); experiment: ELISA, lysate on biotinylated CD137-Fc
T4 construct: Bought Fc fusion; also called CD137-Fc
Method in brief: as §2

Row | ELISA CD137-Fc (RLU) [1] [RLU] | ELISA HSA (RLU) [2] [RLU] | ELISA Fc Control (RLU) [3] [RLU] | ELISA Fc Control (RLU) [4] [RLU] | ELISA HSA (RLU) [5] [RLU] | EC50 [6] [nM] | ELISA CD137 (RLU) [7] [RLU] | Binder
1 | 565000 | 480 | 400 | – | – | – | – | ISOP120BR5P1B7 (designed binder, not shown: small tags and cut ends, FN3 domain (Centyrin); tested as E. coli lysate) LPAPKNLVVSRVTEDSARLSWGAKTRQFDSFLIQYQESEKVGEAIVLTVPGSERSYDLTGLKPGTEYTVSIYGVWWVENHFPVSNPLSAIFTT
2 | 1.22e+06 | 560 | 560 | – | – | – | – | ISOP120BR5P1D9 (designed binder, not shown: small tags and cut ends, FN3 domain (Centyrin); tested as E. coli lysate) LPAPKNLVVSRVTEDSARLSWTINSHIFDSFLIQYQESEKVGEAIVLTVPGSERSYDLTGLKPGTEYTVSIYGVWGTKYWQAQSNPLSAIFTT
3 | – | – | – | 1520 | 480 | 1.21 | 8.12e+06 | ISOP193AR9P1B10 (designed binder, not shown: small tags and cut ends) LPAPKNLVVSRVTEDSARLSWAFQWHIFDSFLIQYQESEKVGEAIVLTVPGSERSYDLTGLKPGTEYTVSIYGVGRHYTVYDSNPLSAIFTT
4 | 485000 | 560 | 480 | – | – | – | – | ISOP120BR5P1G11 (designed binder, not shown: small tags and cut ends, FN3 domain (Centyrin); tested as E. coli lysate) LPAPKNLVVSRVTEDSARLSWTKRHFYTFDSFLIQYQESEKVGEAIVLTVPGSERSYYLTGLKPGTENTVSIYGVHGNHPYTDAPANPLSAIFTT
5 | 882000 | 4960 | 5680 | – | – | – | – | ISOP120BR5P1E2 (designed binder, not shown: small tags and cut ends, FN3 domain (Centyrin); tested as E. coli lysate) LPAPKNLVVSRVTEDSARLSWAQELDHFDSFLIQYQESEKVGEAIVLTVPGSERSYDLTGLKPGTEYTVSIYGVYWTWWVRWNSNPLSAIFTT
6 | 927000 | 240 | 320 | – | – | – | – | ISOP120AR5P1C3 (designed binder, not shown: small tags and cut ends, FN3 domain (Centyrin); tested as E. coli lysate) LPAPKNLVVSRVTEDSARLSWSPVDADFTFDSFLIQYQESEKVGEAIVLTVPGSERSYDLTGLKPGTEYTVSIYGVGRHYTVYDSNPLSAIFTT
7 | 906000 | 640 | 480 | – | – | – | – | ISOP120BR5P1E8 (designed binder, not shown: small tags and cut ends, FN3 domain (Centyrin); tested as E. coli lysate) LPAPKNLVVSRVTEDSARLSWNGGEYWVPRFDSFLIQYQESEKVGEAIVLTVPGSERSYDLTGLKPGTEYTVSIYGVVWLQWISWTDSNPLSAIFTT
8 | 875000 | 720 | 2000 | – | – | – | – | ISOP120BR5P1H3 (designed binder, not shown: small tags and cut ends, FN3 domain (Centyrin); tested as E. coli lysate) LPAPKNLVVSRVTEDSARLSWEESRQFFDSFLIQYQESEKVGEAIVLTVPGSERSYDLTGLKPGTEYTVSIYGVVHRAWLRWNGSNPLSAIFTT
9 | – | – | – | 2240 | 960 | 10.5 | 5.89e+06 | ISOP193AR9P1G11 (designed binder, not shown: small tags and cut ends) LPAPKNLVVSRVTEDSARLSWTNEQITKYGFDSFLIQYQESEKVGEAIVLTVPGSERSYDLTGLKPGTEYTVSIYGVGRHYTVYDSNPLSAIFTT
10 | – | – | – | 1600 | 560 | 218 | 4.71e+06 | ISOP193AR9P1F9 (designed binder, not shown: small tags and cut ends) LPAPKNLVVSRVTEDSARLSWPLFASDLNIFDSFLIQYQESEKVGEAIVLTVPGSERSYDLTGLKPGTEYTVSIYGVGRHYTVYDSNPLSAIFTT
11 | – | – | – | 1440 | – | 18.7 | – | ISOP193ER9P1G11 (designed binder, not shown: small tags and cut ends) LPAPKNLVVSRVTEDSARLSWTAPDAAFDSFDIYYFEHPVGGEAIVLTVPGSERSYDLTGLKPGTEYLVTIYGVKGGYLSMPLSAIFTT
12 | 299000 | 240 | 400 | – | – | – | – | ISOP120BR5P1F2 (designed binder, not shown: small tags and cut ends, FN3 domain (Centyrin); tested as E. coli lysate) LPAPKNLVVSRVTEDSARLSWTFHPTFEGFDSFLIQYQESEKVGEAIVLTVPGSERSYDLTGLKPGTEYTVSIYGVKWYAGIGYPVSNPLSAIFTT
13 | 306000 | 240 | 880 | – | – | – | – | ISOP120BR5P1C7 (designed binder, not shown: small tags and cut ends, FN3 domain (Centyrin); tested as E. coli lysate) LPAPKNLVVSRVTEDSARLSWNVTQKEFDSFLIQYQESEKVGEAIVLTVPGSERSYDLTGLKPGTEYTVSIYGVGNRYYTVYDSNPLSAIFTT
14 | 1.02e+06 | 320 | 320 | – | – | – | – | ISOP120GR5P1E1 (designed binder, not shown: small tags and cut ends, FN3 domain (Centyrin); tested as E. coli lysate) LPAPKNLVVSRVTEDSARLSWTAPDAAFDSFIIQYAEDSSWGEAINLHVPGSERSYDLTGLKPGTEYHVHIYGVKGGEASNPLWAWFTT
15 | 573000 | 26600 | 36200 | – | – | – | – | ISOP120BR5P1A10 (designed binder, not shown: small tags and cut ends, FN3 domain (Centyrin); tested as E. coli lysate) LPAPKNLVVSRVTEDSARLSWTEEDITHLRFDSFLIQYQESEKVGEAIVLTVPGSERSYDLTGLKPGTEYTVSIYGVYWTWWVRWNSNPLSAIFTT
16 | – | – | – | 960 | 480 | 13.9 | 5.74e+06 | ISOP193AR9P1B4 (designed binder, not shown: small tags and cut ends) LPAPKNLVVSRVTEDSARLSWRDLQYHTFDSFLIQYQESEKVGEAIVLTVPGSERSYDLTGLKPGTEYTVSIYGVGRHYTVYDSNPLSAIFTT
17 | 358000 | 400 | 560 | – | – | – | – | ISOP120BR5P1B9 (designed binder, not shown: small tags and cut ends, FN3 domain (Centyrin); tested as E. coli lysate) LPAPKNLVVSRVTEDSARLSWAVEFNPTKFDSFLIQYQESEKVGEAIVLTVPGSERSYDLTGLKPGTEYTVSIYGVWWFEQWYPVSNPLSAIFTT
18 | 1.34e+06 | 320 | 320 | – | – | – | – | ISOP120GR5P1G3 (designed binder, not shown: small tags and cut ends, FN3 domain (Centyrin); tested as E. coli lysate) LPAPKNLVVSRVTEDSARLSWTAPDAAFDSFYIRYWEFCHSGEAIELSVPGSERSYDLTGLKPGTEYFVRIVGVKGGRVSLPLGAKFTT
19 | 942000 | 560 | 320 | – | – | – | – | ISOP120BR5P1E4 (designed binder, not shown: small tags and cut ends, FN3 domain (Centyrin); tested as E. coli lysate) LPAPKNLVVSRVTEDSARLSWDDQFEDWFDSFLIQYQESEQVGEAIVLTVPGSERSYDLTGLKPGTEYTVSIYGVHTRDWTAWNASNPLSAIFTT
20 | 942000 | 320 | 480 | – | – | – | – | ISOP120BR5P1D8 (designed binder, not shown: small tags and cut ends, FN3 domain (Centyrin); tested as E. coli lysate) LPAPKNLVVSRVTEDSARLSWKNHTQEWEFDSFLIQYQESEKVGEAIVLTVPGSERSYDLTGLKPGTEYTVSIYGVPIAWLAWTSTSNPLSAIFTT
21 | 779000 | 400 | 320 | – | – | – | – | ISOP120BR5P1E6 (designed binder, not shown: small tags and cut ends, FN3 domain (Centyrin); tested as E. coli lysate) LPAPKNLVVSRVTEDSARLSWLEGANAEFDSFLIQYQESEKVGEAIVLTVPGSERSYDLTGLKPGTEYTVSIYGVHWVGPWYPVSNPLSAIFTT
22 | 1.14e+06 | 400 | 240 | – | – | – | – | ISOP120BR5P1D3 (designed binder, not shown: small tags and cut ends, FN3 domain (Centyrin); tested as E. coli lysate) LPAPKNLVVSRVTEDSARLSWSEHPTPFATFDSFLIQYQESEKVGEAIVLTVPGSERSYDLTGLKPGTEYTVSIYGVWWVENHFPVSNPLSAIFTT
23 | 1.27e+06 | 560 | 320 | – | – | – | – | ISOP120BR5P1C9 (designed binder, not shown: small tags and cut ends, FN3 domain (Centyrin); tested as E. coli lysate) LPAPKNLVVSRVTEDSARLSWAWNRHDFDSFLIQYQESEKVGEAIVLTVPGSERSYDLTGLKPGTEYTVSIYGVHWTVLRPFIDSNPLSAIFTT
24 | 580000 | 400 | 480 | – | – | – | – | ISOP120BR5P1G4 (designed binder, not shown: small tags and cut ends, FN3 domain (Centyrin); tested as E. coli lysate) LPAPKNLVVSRVTEDSARLSWAGHYRKIRNFDSFLIQYQESEKVGEAIVLTVPGSERSYDLTGLKPGTEYTVSIYGVKFPYYYATADSNPLSAIFTT
25 | 503000 | 400 | 640 | – | – | – | – | ISOP120BR5P1A5 (designed binder, not shown: small tags and cut ends, FN3 domain (Centyrin); tested as E. coli lysate) LPAPKNLVVSRVTEDSARLSWAGHYRKIRNFDSFLIQYQESEKVGEAIVLTVPGSKRSYDLTGLKPGTEYTVSIYGVKFPYYYATADSNPLSAIFTT

Reference: US20220259289A1 (Janssen / Centocor, published 2022)
